The target of the assay is FGFR3. Kind of assay: cell-based or functional assay.

Substance “sprifermin (rhFGF18) (from UniProt O76093 28-196) (ligand)” had an FGF18 EC50 (nM), BaF3/FGFR3 cell proliferation (ATP) assay of 0.02 nM.
